This note sets out measurements from patent publication US20240084041A1 (Regeneron, published 2024).

Experiment in all cases: cell-based or functional assay
For assay [1], the target named is T1, MET on NCI-H596 cells (MET exon14 skip mutation) (human, UniProt P08581 25-1390).
The target of assay [2] is T1, MET on NCI-H596 cells (MET exon14 skip …). This is another data set of the same source.
A further assay concerns the target T2, MET on EBC-1 cells (human, UniProt P08581 25-1390).
T2 chain: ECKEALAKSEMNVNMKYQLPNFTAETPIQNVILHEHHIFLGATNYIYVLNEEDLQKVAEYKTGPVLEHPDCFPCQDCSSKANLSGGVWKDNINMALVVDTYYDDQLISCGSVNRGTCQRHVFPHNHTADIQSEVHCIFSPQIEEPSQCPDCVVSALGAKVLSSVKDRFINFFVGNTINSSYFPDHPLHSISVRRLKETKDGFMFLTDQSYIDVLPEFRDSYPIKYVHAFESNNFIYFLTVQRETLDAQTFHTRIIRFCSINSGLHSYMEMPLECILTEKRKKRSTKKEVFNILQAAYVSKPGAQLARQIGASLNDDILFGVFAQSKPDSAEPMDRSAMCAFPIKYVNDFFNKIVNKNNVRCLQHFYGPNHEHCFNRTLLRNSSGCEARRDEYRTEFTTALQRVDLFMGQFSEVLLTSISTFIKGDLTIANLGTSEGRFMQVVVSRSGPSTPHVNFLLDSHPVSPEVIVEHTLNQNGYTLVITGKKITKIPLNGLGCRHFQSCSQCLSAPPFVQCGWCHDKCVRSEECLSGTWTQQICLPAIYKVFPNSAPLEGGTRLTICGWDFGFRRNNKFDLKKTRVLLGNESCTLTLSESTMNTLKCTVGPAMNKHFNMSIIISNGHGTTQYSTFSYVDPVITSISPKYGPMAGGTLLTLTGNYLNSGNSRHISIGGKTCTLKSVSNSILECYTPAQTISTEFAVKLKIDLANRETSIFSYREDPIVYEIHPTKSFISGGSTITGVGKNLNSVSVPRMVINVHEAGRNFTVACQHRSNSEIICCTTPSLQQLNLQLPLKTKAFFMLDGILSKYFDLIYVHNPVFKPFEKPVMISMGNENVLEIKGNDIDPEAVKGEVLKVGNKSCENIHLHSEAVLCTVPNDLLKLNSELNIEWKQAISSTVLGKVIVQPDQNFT

B1: H4H13306P2 (antibody, V domains shown)
VH: EVQLVESGGGLVQPGTSLRLSCAASGFTFDDYAMHWVRQAPGKGLEWVSGITWNSYNIDYADSVKGRFTISRDNAKNSLYLQMNSLRAEDTALYYCAKDDDYSNYVYFDYWGQGTLVTVSS
VL: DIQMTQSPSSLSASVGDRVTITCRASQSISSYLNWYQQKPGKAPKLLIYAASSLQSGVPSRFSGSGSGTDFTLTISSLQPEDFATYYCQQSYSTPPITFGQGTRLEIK
On to B1, for which, in assay [1], the “Relative MET Level (immunoblot, 18 hours, 5 µg/ml, NCI-H596)” value (from here on “Relative MET Level”) was 0.5 relative to hFc control. In addition, the “Relative Cell Growth (n = 3), NCI-H596 in soft agar, 5 µg/ml, two weeks” value (shortened to “Relative Cell Growth (n = 3), NCI-H596”) in assay [2] was 2.96 relative to control (no treatment).

B2: H4H14639D Bispecific Antibody (bispecific antibody, V domains shown)
VH 1: EVQLVESGGGLVQPGTSLRLSCAASGFTFDDYAMHWVRQAPGKGLEWVSGITWNSYNIDYADSVKGRFTISRDNAKNSLYLQMNSLRAEDTALYYCAKDDDYSNYVYFDYWGQGTLVTVSS
VH 2: EVQLVESGGGLVQPGGSLRLSCAASGFIVTTNYMTWLRQAPGKGLEWVSLIYSSGHTYYADSVKGRFTISRHNSKNTLYLQMDSLRAEDTAVYYCASAFAADVFDIWGQGTMVTVSS
VL: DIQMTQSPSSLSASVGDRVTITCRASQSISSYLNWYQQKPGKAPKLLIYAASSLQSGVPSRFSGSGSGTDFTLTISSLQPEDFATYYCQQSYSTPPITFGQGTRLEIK
Regarding B2, the “Relative MET Level” value in assay [1] is 0.24 relative to hFc control. Further, the “Relative Cell Growth (n = 3), NCI-H596” value in assay [2] is 1.07 relative to control (no treatment). In the assay with MET on EBC-1 cells, the “Relative Cell Growth (n = 3), EBC-1, 0.1 µg/mL, 5 days” value was 0.397 relative to control and the “Relative Cell Growth (n = 3), EBC-1, 1 µg/mL, 5 days” value is 0.462 relative to control.

B3: H4H13312P2 (antibody, V domains shown)
VH: EVQLVESGGGLVQPGGSLRLSCAASGFIVTTNYMTWLRQAPGKGLEWVSLIYSSGHTYYADSVKGRFTISRHNSKNTLYLQMDSLRAEDTAVYYCASAFAADVFDIWGQGTMVTVSS
VL: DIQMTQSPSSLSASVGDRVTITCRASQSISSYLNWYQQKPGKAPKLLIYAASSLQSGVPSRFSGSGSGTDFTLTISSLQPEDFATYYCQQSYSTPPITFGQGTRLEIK
On to B3, for which the “Relative MET Level” value in assay [1] is 0.35 relative to hFc control. Moreover, the “Relative Cell Growth (n = 3), NCI-H596” value in assay [2] is 1.69 relative to control (no treatment).
